From patent US20220267436A1

Columns and labels:
[1] = target: human CD47 (human) (UniProt Q08722); experiment: flow cytometry, CHO-K1 cells expressing human CD47; FIG. 3
[2] = target: human CD47 (human) (UniProt Q08722); experiment: flow cytometry, CHO-K1 cells expressing human CD47; FIG. 4
[3] = target: human LAG-3 (human) (UniProt P18627); experiment: flow cytometry, CHO-K1 cells expressing human LAG-3; FIG. 1
[4] = target: human LAG-3 (human) (UniProt P18627); experiment: flow cytometry, CHO-K1 cells expressing human LAG-3; FIG. 2

human LAG-3 (human), sequence (P18627 23-525): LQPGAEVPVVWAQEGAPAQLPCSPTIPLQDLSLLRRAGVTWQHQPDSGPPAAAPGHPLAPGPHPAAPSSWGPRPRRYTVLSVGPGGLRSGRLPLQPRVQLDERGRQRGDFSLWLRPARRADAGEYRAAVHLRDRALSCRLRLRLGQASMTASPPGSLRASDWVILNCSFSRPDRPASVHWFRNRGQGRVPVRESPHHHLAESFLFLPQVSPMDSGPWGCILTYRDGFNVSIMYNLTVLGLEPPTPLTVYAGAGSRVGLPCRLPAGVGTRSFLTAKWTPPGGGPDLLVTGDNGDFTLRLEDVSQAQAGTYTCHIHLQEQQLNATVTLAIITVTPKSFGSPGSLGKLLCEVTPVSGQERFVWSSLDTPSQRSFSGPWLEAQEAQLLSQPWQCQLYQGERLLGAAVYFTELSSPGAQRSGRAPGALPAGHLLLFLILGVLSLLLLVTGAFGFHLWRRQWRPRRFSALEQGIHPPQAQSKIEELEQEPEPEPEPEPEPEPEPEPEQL
human CD47 (human), sequence (Q08722 19-323): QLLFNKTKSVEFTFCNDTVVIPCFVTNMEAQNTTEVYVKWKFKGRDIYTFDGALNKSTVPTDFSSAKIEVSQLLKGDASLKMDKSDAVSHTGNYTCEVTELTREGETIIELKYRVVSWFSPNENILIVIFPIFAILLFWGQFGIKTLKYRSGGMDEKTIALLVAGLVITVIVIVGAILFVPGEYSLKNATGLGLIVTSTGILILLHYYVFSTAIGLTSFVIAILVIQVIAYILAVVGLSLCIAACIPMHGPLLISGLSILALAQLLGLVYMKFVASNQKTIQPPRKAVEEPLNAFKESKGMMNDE

Q: Which results are given for Human IgG?
A: EC50 [1]: 14.4 nM; EC50 [2]: 14.4 nM; EC50 [3]: 2.46 nM; EC50 [4]: 2.46 nM
